Experimental data as given in US20190127452A1.

Experiments:
Assay in all cases: cell-based or functional assay
[1] = target: murine glutamine synthetase N-terminal mutant W60A N61A D63A (mutGS-NT1) (murine) (UniProt P15105)
[2] = target: murine glutamine synthetase N-terminal mutant W60A N61A D63A S66A (mutGS-NT2) (murine) (UniProt P15105)
[3] = target: murine glutamine synthetase N-terminal mutant W60A N61A D63A S66A D76A (mutGS-NT3) (murine) (UniProt P15105)
[4] = target: murine glutamine synthetase N-terminal mutant W60A N61A D63R S66A (mutGS-NT4) (murine) (UniProt P15105)

Measured: recovery of viability of CHO-K1 GS knockout pools in glutamine-free medium

murine glutamine synthetase C-terminal mutant E134A E136A E196A E203A (mutGS-CT1) (from UniProt P15105 1-373)
90 % viability: all assays above

murine glutamine synthetase C-terminal mutant N248A H253A N255A (mutGS-CT2) (from UniProt P15105 1-373)
90 % viability: all assays above
